Measurements reported in paper PMC7986808.

T1: RH2, His-TF-RH2 (Medicago truncatula, UniProt A0A072TSA4 1-207)
T1 sequence: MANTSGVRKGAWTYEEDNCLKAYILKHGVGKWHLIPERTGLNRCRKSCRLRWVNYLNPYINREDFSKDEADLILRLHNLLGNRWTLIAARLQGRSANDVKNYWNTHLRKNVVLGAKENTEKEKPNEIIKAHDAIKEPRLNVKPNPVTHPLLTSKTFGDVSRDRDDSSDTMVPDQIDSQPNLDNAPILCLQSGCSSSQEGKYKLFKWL


Molecular target: T1, RH2, His-TF-RH2
Test: EMSA

Row | Binder | binding result
1 | MtCHS probe (dsDNA) DNA 1: TCAGACTCACATTAAAACTACAGTCTGTTGAGTTGTGCTATTATATTAAGAGAGACAAT DNA 2: ATTGTCTCTCTTAATATAATAGCACAACTCAACAGACTGTAGTTTTAATGTGAGTCTGA | binds
2 | MtANS probe (dsDNA) DNA 1: CTATATATAAGAAGCTAGCTGCATACAACCATTTATTCACGTTTTGTGCTGTGCAATCA DNA 2: TGATTGCACAGCACAAAACGTGAATAAATGGTTGTATGCAGCTAGCTTCTTATATATAG | binds
